# Values quoted from earlier work as cited in PMC11468230.
# pKd, pKi: −log10 of the molar value.
# Assays:
# [1] = biological target: KV channel (Kv1.3) (Homo sapiens) (UniProt P22001)
# IKCa1 (Homo sapiens) = IKCa1 (Homo sapiens) (UniProt O15554)
# Kv1.3 (Homo sapiens) = Kv1.3 (Homo sapiens) (UniProt P22001)
# [2] = biological target: GLP-1 receptor (Homo sapiens) (UniProt P43220)
# Sequence of UniProt P43220 (P43220 24-463): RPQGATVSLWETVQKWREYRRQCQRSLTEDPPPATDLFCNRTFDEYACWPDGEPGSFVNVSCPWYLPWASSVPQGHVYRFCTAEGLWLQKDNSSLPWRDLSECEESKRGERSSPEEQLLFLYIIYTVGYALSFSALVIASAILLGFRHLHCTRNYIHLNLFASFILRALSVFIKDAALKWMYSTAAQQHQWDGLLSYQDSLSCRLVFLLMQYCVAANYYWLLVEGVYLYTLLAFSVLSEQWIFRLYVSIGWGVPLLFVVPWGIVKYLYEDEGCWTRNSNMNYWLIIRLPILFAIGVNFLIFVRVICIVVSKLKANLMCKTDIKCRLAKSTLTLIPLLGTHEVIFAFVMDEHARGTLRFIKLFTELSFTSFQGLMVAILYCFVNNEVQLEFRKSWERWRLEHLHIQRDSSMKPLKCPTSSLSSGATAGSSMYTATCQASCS
# Sequence of UniProt O15554 (O15554 whole entry): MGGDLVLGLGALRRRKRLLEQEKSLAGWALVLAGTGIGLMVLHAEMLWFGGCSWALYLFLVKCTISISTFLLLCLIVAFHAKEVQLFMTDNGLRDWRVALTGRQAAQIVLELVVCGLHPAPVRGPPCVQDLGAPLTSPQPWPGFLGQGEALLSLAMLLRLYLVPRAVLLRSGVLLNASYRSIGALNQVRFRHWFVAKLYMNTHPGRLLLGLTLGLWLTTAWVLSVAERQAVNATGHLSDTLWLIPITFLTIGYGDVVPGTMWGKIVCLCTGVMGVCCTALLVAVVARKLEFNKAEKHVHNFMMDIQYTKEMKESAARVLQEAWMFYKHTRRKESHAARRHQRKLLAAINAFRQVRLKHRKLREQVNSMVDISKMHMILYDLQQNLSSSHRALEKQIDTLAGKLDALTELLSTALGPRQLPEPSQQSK
substance,measurement,setting,value
Charybdotoxin (from UniProt P13487),pKd,[1],8.52
same,pKd,IKCa1 (Homo sapiens),8.30
ShK (from UniProt P29187),pKd,Kv1.3 (Homo sapiens),10.96
exendin-4 (from UniProt P26349),pKi,[2],9.34
